Series [1] deals with T1, STNV coat protein wild-type (Satellite tobacco necrosis virus 1) (UniProt P03606).
T1 sequence: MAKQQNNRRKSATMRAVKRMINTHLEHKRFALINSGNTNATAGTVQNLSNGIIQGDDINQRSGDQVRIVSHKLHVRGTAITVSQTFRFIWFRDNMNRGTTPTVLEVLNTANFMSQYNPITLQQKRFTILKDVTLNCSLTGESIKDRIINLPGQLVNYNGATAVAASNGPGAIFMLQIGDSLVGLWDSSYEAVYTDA
To be noted: QELS after SEC; Rh 9.1 nm.

Series [2] addresses T2, STNV coat protein wild-type (Satellite tobacco necrosis virus 1, UniProt P03606 P03606:1-196).
T2 sequence: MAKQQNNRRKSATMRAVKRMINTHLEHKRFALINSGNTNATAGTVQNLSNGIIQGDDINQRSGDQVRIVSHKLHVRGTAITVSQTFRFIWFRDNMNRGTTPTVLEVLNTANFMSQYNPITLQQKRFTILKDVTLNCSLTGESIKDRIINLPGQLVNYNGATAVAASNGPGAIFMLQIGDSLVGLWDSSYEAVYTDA
As to the kind of experiment: svAUC; T=1 capsids with similar efficiency to PS3; 2 mM Ca2+. To be noted: chain copies: trimeric capsomer / T=1 capsid; stem-loop.

In series [3] the target is T2, STNV coat protein wild-type. The series can be described thus: smFCS; more efficient than wild-type 127-mer. The settings on record: chain copies: trimeric capsomer / T=1 capsid; label: 5' Alexa Fluor 488; five stem-loops.
For series [4] the target is unchanged. As to the kind of experiment: competition; unlabelled B3 displaces AF488-B3 at 100-fold excess. The settings on record: chain copies: trimeric capsomer / T=1 capsid; stem-loop.
The target is the same in series [5]. As to the kind of experiment: smFCS; T=1 at lower CP than wild-type 127-mer. To be noted: chain copies: trimeric capsomer / T=1 capsid; label: 5' Alexa Fluor 488; five stem-loops.
For series [6] the target is unchanged. As to the kind of experiment: smFCS; T=1 but cooperativity lost. To be noted: chain copies: trimeric capsomer / T=1 capsid; label: 5' Alexa Fluor 488.
Series [7] has the same target. The series can be described thus: smFCS; best assembly substrate. To be noted: chain copies: trimeric capsomer / T=1 capsid; label: 5' Alexa Fluor 488; five stem-loops.
The target is the same in series [8]. As to the kind of experiment: competition; competes; forms T=1; text states low nanomolar affinity for AUUA. The settings on record: chain copies: trimeric capsomer / T=1 capsid; stem-loop.
Series [9] has the same target. The series can be described thus: smFCS; Rh collapse 20-30% then cooperative T=1 assembly. The settings on record: chain copies: trimeric capsomer / T=1 capsid; label: 5' Alexa Fluor 488; five stem-loops.
Series [10] has the same target. The series can be described thus: competition; competes with B3; T=1 peak in svAUC. To be noted: chain copies: trimeric capsomer / T=1 capsid; stem-loop.

In turn, STNV-1 genome displayed an activity (% relative VLP yield) in series [1] of 80.

ACAUGCAAGGAUGCACAC (ssRNA) [B3 AGGA]: the binding result in series [2] is given as “binds”.

B1: All PS3 (ssRNA)
RNA: GGGCCCCGCAACAAUGCGGGGAAGGAAGGAAGGAAGAAAACGUACAAACGUUUUAAGGAACAACGCAACAAUGCGUUGAAGGAAGGAAGGAAGGGGCGUACAAACGCCCCAAGGAAUUUUGCAACAAUGCAAAAAAGGAA
Turning to B1, the binding result in [3] was “binds”.

Take ACAUGCAACAAUGCACAC (ssRNA) [B3 short / PS3 ACAA]: the binding result in series [4] is “binds”.

B2: Stable PS1-5 (ssRNA)
RNA: GGGCUGCCCUCAAGGACCAGGGCAGAAAAGAGGAAAAGAAAAGUGACAGAACACUUAUAAGGAACCACACAAGUGGAAGGAAAAAAGGAAGCUGCAAUAGCGCAAGGAAUCCGAAAAUUCGGAAAGGAA
As for B2, in [5], the binding result is reported as “binds”.

B3: Unstable PS1-5 (ssRNA)
RNA: GGGCUGCCCUCAAGGACCAGGGCAGAAAAGAGGAAAAGAAAAGUGACAGAACACUUAUAAGGAACCACACAAGUAUAAGGAAAAAAGGAAGCUGCAAUAGCGCAAGGAAUCCGAAAAUUCGGAAAGGAA
B3: the binding result in [6] is listed as “binds”.

Consider ACAUGCAAUGAUGCACAC (ssRNA) [B3 AUGA], for which the binding result in series [2] is “binds”.

B4: Synthetic, stabilised PS1-5 (ssRNA)
RNA: GGGCUGCCCUCAAGGACCAGGGCAGAAAAGAGGAAAAGAAAAGUGACAGAACACUUAUAAGGAAAAAACGUACAAACGUUUUAAGGAAAAAAGGAAGCUGCAAUAGCGCAAGGAAUCCGAAAAUUCGGAAAGGAA
For B4, the binding result in [7] was “binds”.

In the case of ACAUGCAAGUAUGCACAC (ssRNA) [B3 AGUA], in series [2], the binding result is “binds”.

ACAUGCAAUUAUGCACAC (ssRNA) [B3 AUUA]: the binding result in [8] was “binds”.

For ACAUGCAAAAAUGCACAC (ssRNA) [B3 AAAA], the binding result in series [2] is on record as “binds”.

B5: STNV-1 PS1-5 127-mer (ssRNA)
RNA: GAGUAAAGACAGGAAACUUUACUGACUAACAUGGCAAAACAACAGAACAACAGGCGAAAAUCCGCAACAAUGCGUGCAGUGAAGCGCAUGAUAAAUACACACUUGGAGCAUAAAAGGUUUGCACUGA
Take B5: the binding result in [9] is on record as “binds”.

Take ACAUGCAUUUAUGCACAC (ssRNA) [B3 UUUA]: the binding result in [10] was “binds”.

(Values after patent publication US20200165613, “VIRUS LIKE PARTICLE” (The University of Leeds, published 2020).)
